Measured values published in publication PMC4822050, “Hemi-methylated DNA opens a closed conformation of UHRF1 to facilitate its histone recognition” (Nature Communications, 2016).

Legend:
[1] = biological target: PHD-SRA of UHRF1 (human); experiment: ITC; 0.05 mM protein in the cell, 0.5 mM protein or peptide in the syringe, iTC200, 18 °C, 10 mM HEPES pH 8.0, 100 mM NaCl
[2] = biological target: UHRF1 TTD, 134-285 (UniProt Q96T88); experiment: ITC; settings: reference: unmodified Spacer642–664 peptide; sites S651
[3] = biological target: T1, SRA-Spacer (human) (UniProt Q96T88); experiment: FP; settings: DNA length series; 5-methyl-dC (hemi-methylated CpG); ITC: 10 mM HEPES pH 8.0, 100 mM NaCl, 18 C; EMSA: 20 mM HEPES pH 7.5, 100 mM NaCl, 8% glycerol, 1 mM DTT, on ice; pull-down: 20 mM HEPES-NaOH pH 8.0, 100 mM …
T1 sequence: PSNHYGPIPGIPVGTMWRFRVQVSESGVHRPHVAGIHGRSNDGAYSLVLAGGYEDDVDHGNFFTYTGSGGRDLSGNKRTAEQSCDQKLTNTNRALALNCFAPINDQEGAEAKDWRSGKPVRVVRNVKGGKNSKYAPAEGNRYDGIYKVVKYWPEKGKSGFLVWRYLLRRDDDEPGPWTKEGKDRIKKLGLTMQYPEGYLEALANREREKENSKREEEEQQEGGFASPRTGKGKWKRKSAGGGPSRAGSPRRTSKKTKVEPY

[4] = biological target: T2, SRA (human) (UniProt Q96T88); experiment: FP; settings: DNA length series; 5-methyl-dC (hemi-methylated CpG); ITC: 10 mM HEPES pH 8.0, 100 mM NaCl, 18 C; EMSA: 20 mM HEPES pH 7.5, 100 mM NaCl, 8% glycerol, 1 mM DTT, on ice; pull-down: 20 mM HEPES-NaOH pH 8.0, 100 mM …
T2 sequence: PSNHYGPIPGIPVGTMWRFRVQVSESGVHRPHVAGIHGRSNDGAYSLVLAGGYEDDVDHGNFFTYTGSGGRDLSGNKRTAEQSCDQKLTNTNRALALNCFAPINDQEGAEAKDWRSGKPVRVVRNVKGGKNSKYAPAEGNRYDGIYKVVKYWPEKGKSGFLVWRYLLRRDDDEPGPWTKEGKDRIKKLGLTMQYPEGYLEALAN

UHRF1 Spacer, 642-664, sequence (Q96T88 134-285, change not shown): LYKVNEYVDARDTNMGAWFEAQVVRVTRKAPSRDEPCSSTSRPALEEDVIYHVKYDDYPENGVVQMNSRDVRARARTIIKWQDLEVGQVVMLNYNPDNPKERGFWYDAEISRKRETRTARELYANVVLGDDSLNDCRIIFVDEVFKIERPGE

| fold decrease in binding affinity against the PHD alone [1] | binding against the reference [2] | Substance | Kd [3] | Kd [4] |
| --- | --- | --- | --- | --- |
| 8 fold | – | H3 peptide (1–17) (from UniProt P68431 2-18) | – | – |
| – | weaker | UHRF1 Spacer, 642-664 (from UniProt Q96T88) pS651 Spacer642–664 peptide | – | – |
| – | – | FAM-16bp-HM-DNA | 0.39 µM | 29.4 µM |
| – | – | FAM-20bp-HM-DNA | 0.4 µM | 9.59 µM |
